T1: TJP3_3, O95049
T1 sequence (O95049 375-456, limits assumed, looked up): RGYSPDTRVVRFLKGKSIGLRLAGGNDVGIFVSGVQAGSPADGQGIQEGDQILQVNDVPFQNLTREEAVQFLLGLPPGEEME

T2: APBA3_1, O96018
T2 sequence (O96018 389-490, limits assumed, looked up): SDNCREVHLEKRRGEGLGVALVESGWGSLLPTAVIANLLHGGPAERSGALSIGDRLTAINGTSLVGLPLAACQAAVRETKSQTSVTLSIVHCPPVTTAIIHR

T3: LIN7A, O14910
T3 sequence (O14910 103-200, limits assumed, looked up): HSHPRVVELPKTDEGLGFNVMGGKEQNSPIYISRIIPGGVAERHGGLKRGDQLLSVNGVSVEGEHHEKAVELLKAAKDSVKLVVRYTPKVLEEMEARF

T4: DLG3_3, Q92796
T4 sequence (Q92796 374-475, limits assumed, looked up): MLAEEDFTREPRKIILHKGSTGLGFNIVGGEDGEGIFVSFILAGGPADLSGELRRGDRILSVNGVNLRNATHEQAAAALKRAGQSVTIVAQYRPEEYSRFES

T5: PDZD2_2, O15018
T5 sequence (O15018 329-429, limits assumed, looked up): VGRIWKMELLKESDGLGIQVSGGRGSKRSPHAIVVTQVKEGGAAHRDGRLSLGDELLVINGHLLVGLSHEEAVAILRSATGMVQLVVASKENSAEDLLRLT

T6: DFNB31_3, Q9P202
T6 sequence (Q9P202 811-907, limits assumed, looked up): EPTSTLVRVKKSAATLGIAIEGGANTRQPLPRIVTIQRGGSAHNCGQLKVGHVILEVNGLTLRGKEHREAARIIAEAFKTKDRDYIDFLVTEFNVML

T7: SNTG1, Q9NSN8
T7 sequence (Q9NSN8 52-150, limits assumed, looked up): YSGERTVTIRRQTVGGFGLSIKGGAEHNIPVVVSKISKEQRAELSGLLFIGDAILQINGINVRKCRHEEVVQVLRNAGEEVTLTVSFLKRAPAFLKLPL

T8: GRIP1_7, Q9Y3R0
T8 sequence (Q9Y3R0 999-1096, limits assumed, looked up): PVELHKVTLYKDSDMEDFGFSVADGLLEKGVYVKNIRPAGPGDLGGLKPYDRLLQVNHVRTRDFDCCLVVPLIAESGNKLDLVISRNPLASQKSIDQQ

T9: MPDZ_12, O75970
T9 sequence (O75970 1857-1958, limits assumed, looked up): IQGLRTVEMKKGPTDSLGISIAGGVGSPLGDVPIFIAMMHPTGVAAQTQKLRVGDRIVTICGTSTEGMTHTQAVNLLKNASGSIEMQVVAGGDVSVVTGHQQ


Legend:
Assay in all cases: holdup assay
Set-up in all cases: key: below the threshold = too weak to quantify, mostly under pKd 3.1 to 4
Settings in all cases: plain residues with an end cap or a label only (N-terminal biotin on a linker: ttds)
[1] = target: LNX1_2, Q8TBB1
Sequence of LNX1_2, Q8TBB1 (Q8TBB1 371-470): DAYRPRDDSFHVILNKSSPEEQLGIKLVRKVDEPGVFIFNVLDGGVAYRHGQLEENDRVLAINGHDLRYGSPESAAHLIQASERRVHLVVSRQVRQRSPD

[2] = target: FRMPD2_3, Q68DX3
Sequence of FRMPD2_3, Q68DX3 (Q68DX3 1073-1166): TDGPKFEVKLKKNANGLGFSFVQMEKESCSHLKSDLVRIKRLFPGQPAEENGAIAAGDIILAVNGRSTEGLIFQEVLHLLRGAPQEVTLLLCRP

[3] = target: T1, TJP3_3, O95049
[4] = target: TJP1_2, Q07157
Sequence of TJP1_2, Q07157 (Q07157 181-274): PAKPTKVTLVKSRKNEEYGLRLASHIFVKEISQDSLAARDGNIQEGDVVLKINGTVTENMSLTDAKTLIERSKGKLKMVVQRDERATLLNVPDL

[5] = target: GRIP2_4, Q9C0E4
Sequence of GRIP2_4, Q9C0E4 (Q9C0E4 446-548): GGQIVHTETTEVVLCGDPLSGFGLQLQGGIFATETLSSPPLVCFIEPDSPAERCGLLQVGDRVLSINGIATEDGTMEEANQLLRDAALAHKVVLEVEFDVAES

[6] = target: DLG1_2, Q12959
[7] = target: NHERF2_2, Q15599
Sequence of NHERF2_2, Q15599 (Q15599 142-238): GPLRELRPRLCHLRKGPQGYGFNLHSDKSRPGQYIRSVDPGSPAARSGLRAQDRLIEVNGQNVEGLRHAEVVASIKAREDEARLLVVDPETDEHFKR

[8] = target: GOPC, Q9HD26
[9] = target: GRIP2_6, Q9C0E4
Sequence of GRIP2_6, Q9C0E4 (Q9C0E4 648-740): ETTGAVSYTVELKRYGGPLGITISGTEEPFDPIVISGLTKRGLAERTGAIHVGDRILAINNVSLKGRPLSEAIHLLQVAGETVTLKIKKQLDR

[10] = target: T2, APBA3_1, O96018
[11] = target: NOS1, P29475
Sequence of NOS1, P29475 (P29475 9-101): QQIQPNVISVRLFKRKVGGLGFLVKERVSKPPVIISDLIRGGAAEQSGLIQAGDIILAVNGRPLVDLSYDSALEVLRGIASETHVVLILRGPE

[12] = target: MAGI2_6, Q86UL8
Sequence of MAGI2_6, Q86UL8 (Q86UL8 1141-1229): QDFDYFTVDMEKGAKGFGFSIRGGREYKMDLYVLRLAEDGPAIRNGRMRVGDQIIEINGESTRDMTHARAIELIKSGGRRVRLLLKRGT

[13] = target: PARD3_3, Q8TEW0
Sequence of PARD3_3, Q8TEW0 (Q8TEW0 582-685): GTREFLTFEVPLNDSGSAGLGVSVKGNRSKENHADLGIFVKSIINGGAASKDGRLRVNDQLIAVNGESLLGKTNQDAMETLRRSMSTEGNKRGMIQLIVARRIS

[14] = target: T3, LIN7A, O14910
[15] = target: T4, DLG3_3, Q92796
[16] = target: Inadl_1, Q8NI35
Sequence of Inadl_1, Q8NI35 (Q8NI35 113-229): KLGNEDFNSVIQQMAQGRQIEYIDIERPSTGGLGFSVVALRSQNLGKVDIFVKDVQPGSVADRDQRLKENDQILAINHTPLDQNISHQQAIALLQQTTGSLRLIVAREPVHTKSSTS

[17] = target: PDZRN4_1, Q6ZMN7
Sequence of PDZRN4_1, Q6ZMN7 (Q6ZMN7 213-318): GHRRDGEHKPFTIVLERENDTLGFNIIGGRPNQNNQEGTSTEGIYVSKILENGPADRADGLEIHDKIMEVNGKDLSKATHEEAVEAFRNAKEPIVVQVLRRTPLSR

[18] = target: T5, PDZD2_2, O15018
[19] = target: T6, DFNB31_3, Q9P202
[20] = target: MAST1, Q9Y2H9
Sequence of MAST1, Q9Y2H9 (Q9Y2H9 962-1065): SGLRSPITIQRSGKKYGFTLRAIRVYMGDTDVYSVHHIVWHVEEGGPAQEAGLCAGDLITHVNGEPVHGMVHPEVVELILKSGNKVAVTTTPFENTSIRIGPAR

[21] = target: DLG1_3, Q12959
[22] = target: LAP2, Q96RT1
Sequence of LAP2, Q96RT1 (Q96RT1 other isoform, or with tags, fused parts or gaps): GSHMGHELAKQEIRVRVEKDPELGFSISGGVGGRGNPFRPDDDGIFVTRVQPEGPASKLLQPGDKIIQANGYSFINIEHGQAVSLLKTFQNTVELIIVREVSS

[23] = target: IL16_1, Q14005
Sequence of IL16_1, Q14005 (Q14005 210-306): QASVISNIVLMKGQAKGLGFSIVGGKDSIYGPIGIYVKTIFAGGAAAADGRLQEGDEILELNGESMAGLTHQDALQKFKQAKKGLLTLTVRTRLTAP

[24] = target: GORASP2, Q9H8Y8
[25] = target: DLG1_1, Q12959
[26] = target: T7, SNTG1, Q9NSN8
[27] = target: T8, GRIP1_7, Q9Y3R0
[28] = target: Inadl_4, Q8NI35
Sequence of Inadl_4, Q8NI35 (Q8NI35 547-651): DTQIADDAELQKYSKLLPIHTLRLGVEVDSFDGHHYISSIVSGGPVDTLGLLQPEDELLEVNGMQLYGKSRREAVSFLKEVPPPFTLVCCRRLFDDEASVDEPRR

[29] = target: T9, MPDZ_12, O75970

pKd [1]	pKd [2]	pKd [3]	pKd [4]	pKd [5]	pKd [6]	pKd [7]	pKd [8]	pKd [9]	pKd [10]	pKd [11]	pKd [12]	pKd [13]	pKd [14]	pKd [15]	pKd [16]	pKd [17]	pKd [18]	pKd [19]	pKd [20]	Binder	also measured
3.52	below the threshold	3.55	below the threshold	below the threshold	3.77	4.12	below the threshold	below the threshold	below the threshold	3.75	4.36	3.7	below the threshold	below the threshold	below the threshold	4.41	below the threshold	below the threshold	4.26	QSARYRDTEL [TJP2, Q9UDY2]	pKd [21]: 3.83; pKd [22]: below the threshold; pKd [23]: below the threshold; pKd [24]: below the threshold; pKd [25]: 3.68; pKd [26]: 3.73; pKd [27]: 3.82; pKd [28]: below the threshold; pKd [29]: below the threshold
below the threshold	below the threshold	below the threshold	below the threshold	below the threshold	4.86	3.75	below the threshold	below the threshold	below the threshold	3.75	4.05	below the threshold	below the threshold	4.7	below the threshold	4.46	4.12	below the threshold	below the threshold	VLRLQSETSV [VANGL1, Q8TAA9]	pKd [21]: 4.63; pKd [22]: 4.07; pKd [23]: 3.7; pKd [24]: below the threshold; pKd [25]: 4.45; pKd [26]: 4.67; pKd [27]: 3.73; pKd [28]: below the threshold; pKd [29]: below the threshold
